Assay results from patent US20230227538A1 (published 2023).
Residue numbers refer to the chain shown, from its start.

Columns and labels:
SC2 spike ECD = test: SPR
SpikeS2P = test: SPR
[1] = biological target: SARS-CoV-2 Spike receptor binding domain (RBD) (SARS-CoV-2, UniProt P0DTC2 319-541); test: flow

B1: NbCOV11 (VHH)
VHH: HVQLVESGGGLVQAGGSLRLSCAVSGASAERVGWFRRAPGKEREFVAAIGANGGSTNYLDSVKGRFTISRDNAKNTVYLQMNSLKPQDTAVYYCAARNLETFDYTYWGRGTQVTVSS
- Kd (SC2 spike ECD): 141 nM

B2: mNb6 (VHH)
VHH: QVQLVESGGGLVQAGGSLRLSCAASGYIFGRNAMGWYRQAPGKERELVAGITRRGSITYYADSVKGRFTISRDNAKNTVYLQMNSLKPEDTAVYYCAADPASPAYGDYWGQGTQVTVSS
- Kd (SpikeS2P): 0.45 nM

B3: Nb6 (AeroNab6, NbCOV6, clone pNbCOV006A) (VHH)
VHH: B2 VHH with Y27I, Y105P
- EC50 [1]: 30 nM
